Results published in IntAct's records for PubMed 32453716.

B1: TOG array regulator of axonemal microtubules protein 1 (Homo sapiens), Q9Y4F4 (parent)
chain: MAAAPSALLLLPPFPVLSTYRLQSRSRPSAPETDDSRVGGIMRGEKNYYFRGAAGDHGSCPTTTSPLASALLMPSEAVSSSWSESGGGLSGGDEEDTRLLQLLRTARDPSEAFQALQAALPRRGGRLGFPRRKEALYRALGRVLVEGGSDEKRLCLQLLSDVLRGQGEAGQLEEAFSLALLPQLVVSLREENPALRKDALQILHICLKRSPGEVLRTLIQQGLESTDARLRASTALLLPILLTTEDLLLGLDLTEVIISLARKLGDQETEEESETAFSALQQIGERLGQDRFQSYISRLPSALRRHYNRRLESQFGSQVPYYLELEASGFPEDPLPCAVTLSNSNLKFGIIPQELHSRLLDQEDYKNRTQAVEELKQVLGKFNPSSTPHSSLVGFISLLYNLLDDSNFKVVHGTLEVLHLLVIRLGEQVQQFLGPVIAASVKVLADNKLVIKQEYMKIFLKLMKEVGPQQVLCLLLEHLKHKHSRVREEVVNICICSLLTYPSEDFDLPKLSFDLAPALVDSKRRVRQAALEAFAVLASSMGSGKTSILFKAVDTVELQDNGDGVMNAVQARLARKTLPRLTEQGFVEYAVLMPSSAGGRSNHLAHGADTDWLLAGNRTQSAHCHCGDHVRDSMHIYGSYSPTICTRRVLSAGKGKNKLPWENEQPGIMGENQTSTSKDIEQFSTYDFIPSAKLKLSQGMPVNDDLCFSRKRVSRNLFQNSRDFNPDCLPLCAAGTTGTHQTNLSGKCAQLGFSQICGKTGSVGSDLQFLGTTSSHQEKVYASLNFGSKTQQTFGSQTECTSSNGQNPSPGAYILPSYPVSSPRTSPKHTSPLIISPKKSQDNSVNFSNSWPLKSFEGLSKPSPQKKLVSQKSSDPTGRNHGENSQEKPPVQLTPALVRSPSSRRGLNGTKPVPPIPRGISLLPDKADLSTVGHKKKEPDDIWKCEKDSLPIDLSELNFKDKDLDQEEMHSSLRSLRNSAAKKRAKLSGSTSDLESPDSAMKLDLTMDSPSLSSSPNINSYSESGVYSQESLTSSLSTTPQGKRIMSDIFPTFGSKPCPTRLSSAKKKISHIAEQSPSAGSSSNPQQISSFDFTTTKALSEDSVVVVGKGVFGSLSSAPATCSQSVISSVENGDTFSIKQSIEPPSGIYGRSVQQNISSYLDVENEKDAKVSISKSTYNKMRQKRKEEKELFHNKDCEKKEKNSWERMRHTGTEKMASESETPTGAISQYKERMPSVTHSPEIMDLSELRPFSKPEIALTEALRLLADEDWEKKIEGLNFIRCLAAFHSEILNTKLHETNFAVVQEVKNLRSGVSRAAVVCLSDLFTYLKKSMDQELDTTVKVLLHKAGESNTFIREDVDKALRAMVNNVTPARAVVSLINGGQRYYGRKMLFFMMCHPNFEKMLEKYVPSKDLPYIKDSVRNLQQKGLGEIPLDTPSAKGRRSHTGSVGNTRSSSVSRDAFNSAERAVTEVREVTRKSVPRNSLESAEYLKLITGLLNAKDFRDRINGIKQLLSDTENNQDLVVGNIVKIFDAFKSRLHDSNSKVNLVALETMHKMIPLLRDHLSPIINMLIPAIVDNNLNSKNPGIYAAATNVVQALSQHVDNYLLLQPFCTKAQFLNGKAKQDMTEKLADIVTELYQRKPHATEQKVLVVLWHLLGNMTNSGSLPGAGGNIRTATAKLSKALFAQMGQNLLNQAASQPPHIKKSLEELLDMTILNEL
partner: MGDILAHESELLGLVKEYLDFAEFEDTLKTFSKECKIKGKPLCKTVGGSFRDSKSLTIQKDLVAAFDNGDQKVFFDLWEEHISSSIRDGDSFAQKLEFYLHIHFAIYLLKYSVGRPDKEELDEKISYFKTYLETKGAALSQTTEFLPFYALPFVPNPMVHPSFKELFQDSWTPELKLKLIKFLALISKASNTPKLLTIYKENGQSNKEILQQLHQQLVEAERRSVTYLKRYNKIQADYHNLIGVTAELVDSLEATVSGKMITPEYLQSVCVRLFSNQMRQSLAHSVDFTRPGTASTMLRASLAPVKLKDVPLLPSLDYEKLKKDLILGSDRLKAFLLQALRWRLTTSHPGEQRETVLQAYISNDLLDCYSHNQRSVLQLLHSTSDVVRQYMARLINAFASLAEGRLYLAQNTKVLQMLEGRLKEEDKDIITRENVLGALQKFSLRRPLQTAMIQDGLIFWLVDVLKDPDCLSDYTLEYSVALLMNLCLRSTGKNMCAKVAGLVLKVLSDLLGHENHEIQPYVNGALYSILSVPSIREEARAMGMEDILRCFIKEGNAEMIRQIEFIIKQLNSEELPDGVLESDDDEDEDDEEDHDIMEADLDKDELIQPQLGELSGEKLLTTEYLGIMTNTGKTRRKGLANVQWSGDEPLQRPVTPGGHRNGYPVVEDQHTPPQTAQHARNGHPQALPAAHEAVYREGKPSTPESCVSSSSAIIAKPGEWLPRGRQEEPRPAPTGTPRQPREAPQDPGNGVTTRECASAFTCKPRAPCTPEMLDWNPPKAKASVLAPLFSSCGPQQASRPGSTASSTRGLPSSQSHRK

Variants of: B1
Details: with armc9_human ARMC9, Q7Z3E5

effect of a mutation on the interaction	Variant
disrupting interaction strength	R368W
with no effect	R1311C
disrupting interaction strength	L375P
